{
  "source": "patent US20220153853A1",
  "about": "(JIANGSU HENGRUI MEDICINE, published 2022)",
  "binders": {"B1": {"name": "ch1810 (antibody, human IgG4 S228P, kappa, F234A L235A, V domains shown)", "VH": "QVQLQQSGTELARPGTSVTLSCKASGYTFTNYAISWVKQRTGQGLEWIGEIYPTSGNTYYNEKFKGKATLTADRSSKTMYMELRSLTSVDSAVYFCASGVITTVVSTDYFDYWGQGSPLTVSS", "VL": "DIQMTQIPSSLSVSLGDRVTISCRASLDISNYLNWYQLKPDGTVKLLIYYTSTLHSGVSSRFSGSGSGTEYSLTISNLEQEDIATYFCQQGNMVPYTFGGGTKLEIKR"}, "B2": {"name": "ch1803 (antibody, human IgG4 S228P, kappa, F234A L235A, V domains shown)", "VH": "QFQLHQSGAELVKPGASVKLSCKATGYTFTDYWIEWVKQRPGHGLEWIGEILPGSTYTNYNEKFKGRATFTAEPSSSSAYMQLSGLTTEDSAIYYCSRGLSTLMAVDYFDYWGQGTTLTVSS", "VL": "DIQMTQTTSSLSASLGDRVTINCRASQDISNYLNWYQQKPDGTVKLLIYYSSTLHSGVPSRFSGSGSGTDYSLTISHLEQEDIATYFCQQTNIFPWTFGGGTKLEIRT", "notes": "IgG4-AA / kappa chimeric antibody"}, "B3": {"name": "ch1808 (antibody, human IgG4 S228P, kappa, F234A L235A, V domains shown)", "VH": "QVQLQQSGAELARPGASVKLSCKASGDTFTTNGISWVKQRIGQGLEWIGEIYPRSGNTYYNENFKGKATLTADKSSTTAYMELRRLTSEDSAVYFCARSITSVIGADYFDYWGQGTTLTVSS", "VL": "B2 VL with N22S, Q38K, H77N, T91G, I93T, R107K, T108R", "notes": "as for B2"}, "B4": {"name": "ch1805 (antibody, human IgG4 S228P, kappa, F234A L235A, V domains shown)", "VH": "EVQLQQSGPELVKPGASVKIPCKTSGYTFTDYNMDWVKQSHGRSLEWIGSIDPDNGGTIYNQKFKGKATLTVDKSSSTAYMELRSLTSEDTAVYYCTRDYYGSSSWFAYWGQGTLVTVSA", "VL": "DVVMTQSPATLSVTPGDRVSLSCRASQSISDYLHWYQQKSHESPRLLIKYASQSISGIPSRFSGSGSGSDFTLSINSVEPEDVGVYYCQNGHSFPYTFGGGTKLEIKR", "notes": "IgG4-AA / kappa chimeric antibody; also called chimeric antibody of clone 1805"}, "B5": {"name": "ch1817 (antibody, human IgG4 S228P, kappa, F234A L235A, V domains shown)", "VH": "EVQLVESGGDLVQPGRSMKLSCAASGFTFSNYYMAWVRQAPTKGLEWVASISTGGVNTYYRDSVKGRFTISRDNAKNNLYLQMDSLRSEETATYYCARHTTADYFYGIYFALDAWGQGTSVTVSS", "VL": "QFTLTQPKSVSGSLRSTITIPCERSSGDIGDSYVNWYQQHLGRPPLNVIYADVQRPSEVSDRFSGSIDSSSNSASLTITNLQMDDEADYFCQSYDTNIDIIFGGGTKLTVLR", "notes": "as for B2"}, "B6": {"name": "ch1822 (antibody, human IgG4 S228P, kappa, F234A L235A, V domains shown)", "VH": "B5 VH with Q3R, L11F, M18V, A49G, K76E, N77S, N78T, A102P, F105H, L112M", "VL": "B5 VL with F2V, D31E, L46I, V53D, M83V, T96S, N97S, I101F", "notes": "as for B2"}, "B7": {"name": "hu1810-12 (antibody, human IgG4 S228P, kappa, F234A L235A, V domains shown)", "VH": "QVQLVQSGAEVKKPGSSVKVSCKASGGTFSNYAISWVKQAPGQGLEWIGEIYPTSGNTYYNEKFKGKATLTADRSTSTMYMELSSLRSEDTAVYYCASGVITTVVSTDYFDYWGQGTLVTVSS", "VL": "DIQMTQSPSSLSASVGDRVTITCRASLDISNYLNWYQLKPGKAVKLLIYYTSTLHSGVSSRFSGSGSGTEYTLTISSLQPEDFATYYCQQGNMVPYTFGGGTKVEIKR", "notes": "IgG4-AA / kappa humanized antibody; also called hu1810_VH.1C + hu1810_VL.1B"}, "B8": {"name": "hu1810-10 (antibody, human IgG4 S228P, kappa, F234A L235A, V domains shown)", "VH": "B7 VH with K38R, I48M, K67R, A68V, L70I", "VL": "B7 VL"}, "B9": {"name": "hu1810-11 (antibody, human IgG4 S228P, kappa, F234A L235A, V domains shown)", "VH": "B7 VH with K38R, K67R", "VL": "B7 VL"}},
  "note": "Substitutions are numbered along the chain they refer to.",
  "data": [
    {"target": "T1, Cynomolgus monkey GCGR (cynomolgus monkey)", "T1 construct": "whole, on cells; also called cynomolgus GCGR", "experiment": "cell ELISA on fixed CHO cells overexpressing GCGR", "procedure": "(§1) The expression levels of GCGR were detected after two weeks of pressure screening, After the GCGR-overexpressing cells were fixed to the bottom of 96-well plate, the antibodies were added and the signal strength was used to determine the binding activity of the antibody to GCGR overexpressing CHO cells. The binding abilities of the antibody to the three species of GCGRs were detected with the same binding assay. As an example, the binding of the GCGR antibodies to human GCGR was detected by an assay specifically described as follows:\n(§2) The cells were seeded in a 96-well plate at a density of 0.9-1.0×10⁶/ml, 100 μl/well and cultured overnight. The supernatant was discarded, the plate was washed three times with PBS, 100 μl/well of cell immune fixed solution (Beyotime, Cat No. P0098) was added and fixed for an hour at room temperature, and washed four times with PBS. The liquid was discarded, 200 μl/well blocking solution (5% skim milk (BD skim milk, Cat Wo. 232100) diluted with PBS) was added, and incubated in an incubator at 37° C. for 3 hours for blocking. After the blocking was finished, the blocking solution was discarded, the plate was washed 3 times with PBST buffer (PBS comprising 0.05% tweenW-20, pH7.4), 50 μl/well of various concentrations of each of the test antibodies (antibodies purified from hybridoma, chimeric antibodies or humanized antibodies) diluted with sample dilution solution were added, and incubated in an incubator at 37° C. for 2 hours. After the incubation was finished, the plate was washed 3 times with PBST, 50 μl/well of HRP-labeled goat anti-mouse secondary antibody (JacksoW ImmuWo Research, Cat No. 115-035-003) or goat anti-human secondary antibody (JacksoW ImmuWo Research, Cat Wo. 109-035-003) diluted with sample dilution solution was added, and incubated at 37° C. for 1 hour. The plate was washed 3 times with PBST, 50 μl/well of TMB chromogenic substrate (KPL, Cat Wo. 52-00-03) was added, incubated at room temperature for 10 min, and 50 μl/well of 1M H₂SO4 was added to stop the reaction. The absorbance value was read by a microplate reader (Thermo scientific Multiskan MK3) at a wavelength of 450 nm, and the data was analyzed with GraphPad Prism 5. The binding of GCGR chimeric antibodies to GCGR-overepressing CHO cells was calculated as EC50 value.", "units": {"EC50": "nM"}, "values": [
      {"binder": "B1", "EC50": 0.248},
      {"binder": "B2", "EC50": 0.213},
      {"binder": "B3", "EC50": 0.536},
      {"binder": "B4", "EC50": 0.358},
      {"binder": "B5", "EC50": 0.297},
      {"binder": "B6", "EC50": 0.428}
    ]},
    {"target": "T2, Mouse GCGR (mouse, UniProt Q61606 27-485)", "T2 construct": "whole, on cells; also called mouse glucagon receptor", "T2 sequence (Q61606 27-485)": "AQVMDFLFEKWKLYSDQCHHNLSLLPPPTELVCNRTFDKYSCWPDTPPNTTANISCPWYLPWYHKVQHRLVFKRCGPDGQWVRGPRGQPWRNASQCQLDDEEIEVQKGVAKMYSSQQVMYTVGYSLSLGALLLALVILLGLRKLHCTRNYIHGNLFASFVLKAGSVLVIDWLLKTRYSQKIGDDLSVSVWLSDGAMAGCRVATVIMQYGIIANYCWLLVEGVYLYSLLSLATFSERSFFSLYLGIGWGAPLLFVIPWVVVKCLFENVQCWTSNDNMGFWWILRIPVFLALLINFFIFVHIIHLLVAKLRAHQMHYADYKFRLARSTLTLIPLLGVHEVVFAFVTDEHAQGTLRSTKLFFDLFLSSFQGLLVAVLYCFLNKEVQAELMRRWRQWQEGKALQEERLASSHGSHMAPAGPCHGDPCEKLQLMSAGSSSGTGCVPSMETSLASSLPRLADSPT", "experiment": "cell ELISA on fixed CHO cells overexpressing GCGR", "procedure": "as §1, §2", "units": {"EC50": "nM"}, "values": [
      {"binder": "B1", "EC50": 0.442},
      {"binder": "B2", "EC50": 0.718},
      {"binder": "B3", "EC50": 1.02},
      {"binder": "B4", "EC50": 0.343},
      {"binder": "B5", "EC50": 0.164},
      {"binder": "B6", "EC50": 0.568}
    ]},
    {"target": "T3, human GCGR (full-length glucagon receptor of 477 amino acids) (human, UniProt P47871 26-477)", "T3 construct": "Expressed from a full-length plasmid on CHO / CHO-K1 cells; also called hGCGR", "T3 sequence (P47871 26-477 limits assumed)": "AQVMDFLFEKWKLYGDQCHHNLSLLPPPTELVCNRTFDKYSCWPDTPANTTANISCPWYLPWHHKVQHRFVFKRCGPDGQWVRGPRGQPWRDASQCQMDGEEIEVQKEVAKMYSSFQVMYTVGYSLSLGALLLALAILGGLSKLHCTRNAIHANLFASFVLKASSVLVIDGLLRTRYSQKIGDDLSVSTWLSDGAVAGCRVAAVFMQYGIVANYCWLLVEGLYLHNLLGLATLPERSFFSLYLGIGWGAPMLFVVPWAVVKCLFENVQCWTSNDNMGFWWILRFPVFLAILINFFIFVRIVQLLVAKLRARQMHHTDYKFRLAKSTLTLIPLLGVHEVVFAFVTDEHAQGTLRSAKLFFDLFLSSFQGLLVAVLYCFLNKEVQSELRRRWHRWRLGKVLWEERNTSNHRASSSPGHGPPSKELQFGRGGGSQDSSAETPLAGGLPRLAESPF", "experiment": "cell ELISA on fixed CHO cells overexpressing GCGR", "procedure": "as §1, §2", "units": {"EC50": "nM"}, "values": [
      {"binder": "B1", "EC50": 0.117},
      {"binder": "B2", "EC50": 0.117},
      {"binder": "B3", "EC50": 0.677},
      {"binder": "B4", "EC50": 0.297},
      {"binder": "B5", "EC50": 0.193},
      {"binder": "B6", "EC50": 0.383}
    ]},
    {"target": "T2, Mouse GCGR", "experiment": "cell-based or functional assay", "units": {"IC50": "nM", "Imax (%)": "%"}, "values": [
      {"binder": "B2", "IC50": 24.7, "Imax (%)": 93},
      {"binder": "B3", "IC50": 26.6, "Imax (%)": 100},
      {"binder": "B4", "IC50": 18, "Imax (%)": 100},
      {"binder": "B5", "IC50": 12.8, "Imax (%)": 96},
      {"binder": "B6", "IC50": 16, "Imax (%)": 87}
    ]},
    {"target": "T3, human GCGR (full-length glucagon …)", "experiment": "cell-based or functional assay", "units": {"IC50": "nM", "Imax": "%"}, "values": [
      {"binder": "B1", "IC50": 72.5, "Imax": 100},
      {"binder": "B2", "IC50": 79.3, "Imax": 100},
      {"binder": "B3", "IC50": 105, "Imax": 98},
      {"binder": "B4", "IC50": 95, "Imax": 91},
      {"binder": "B5", "IC50": 59.8, "Imax": 83},
      {"binder": "B6", "IC50": 62.5, "Imax": 59}
    ]},
    {"target": "T3, human GCGR (full-length glucagon …)", "experiment": "competitive cell ELISA on GCGR-overexpressing CHO cells, biotin-labeled against unlabeled antibody; competitor ch1808", "excerpt": "(§3) The GCGR epitopes bound by GCGR antibodies were classified by ELISA assay, in which the competitive binding of the biotin-labeled antibodies with different concentrations of the standard antibody to GCGR-overexpressing CHO cells was detected. The method for preparing the cell plate was the same as that of Test Example 1. The following specific procedures are as follows: The antibody was labelled according to the biotin labeling kit instructions (Dojindo\n(§4) Molecular Technologies, Inc. LK03). The unlabeled test antibody was diluted to a range of concentrations with sample dilution solution in a 96-well cell plate, 50 μl/well, and incubated at 37° C. for 2 hours. After the incubation was finished, the plate was washed 3 times with PBST, 50 μl/well of biotin-labeled antibody diluted with sample dilution solution was added, at a concentration of 0.1 μg/ml, incubated at 37° C. for 2 hours, the plate was washed 3 times with PBST, and HRP-labeled goat-anti-human secondary antibody (JacksoW ImmuWo Research, Cat Wo. 109-035-003) was added, and incubated at 37° C. for 1 hour. The plate was washed 3 times with PBST, 50 μl/well of TMB chromogenic substrate (KPL, Cat No. 52-00-03) was added, incubated at room temperature for 10 min, and 50 μl/well of 1M H₂SO₄ was added to stop the reaction. The absorbance value was read by a microplate reader (Thermo scientific Multiskan MK3) at a wavelength of 450 nm, and the data was analyzed with GraphPad Prism 5.", "units": {"competition efficiency IC %": "%"}, "values": [
      {"binder": "B7", "competition efficiency IC %": 100},
      {"binder": "B3", "competition efficiency IC %": 100},
      {"binder": "B4", "competition efficiency IC %": 100}
    ]},
    {"target": "T3, human GCGR (full-length glucagon …)", "experiment": "competitive cell ELISA on GCGR-overexpressing CHO cells, biotin-labeled against unlabeled antibody; competitor hu1810-12", "excerpt": "as §3, §4", "units": {"competition efficiency IC %": "%"}, "values": [
      {"binder": "B7", "competition efficiency IC %": 100},
      {"binder": "B3", "competition efficiency IC %": 54.3},
      {"binder": "B4", "competition efficiency IC %": 100}
    ]},
    {"target": "T1, Cynomolgus monkey GCGR", "experiment": "cell-based or functional assay", "units": {"IC50": "nM", "Imax (%)": "%"}, "values": [
      {"binder": "B7", "IC50": 886, "Imax (%)": 99}
    ]},
    {"target": "T2, Mouse GCGR", "experiment": "cell-based or functional assay", "remark": "another data set of the same source", "units": {"IC50": "nM", "Imax (%)": "%"}, "values": [
      {"binder": "B7", "IC50": 17.5, "Imax (%)": 97}
    ]},
    {"target": "T3, human GCGR (full-length glucagon …)", "experiment": "cell-based or functional assay", "remark": "another data set of the same source", "units": {"IC50": "nM", "Imax": "%"}, "values": [
      {"binder": "B8", "IC50": 95.6, "Imax": 97.4},
      {"binder": "B7", "IC50": 75.9, "Imax": 99.7},
      {"binder": "B9", "IC50": 91.3, "Imax": 99.6}
    ]},
    {"target": "T3, human GCGR (full-length glucagon …)", "experiment": "competitive cell ELISA on GCGR-overexpressing CHO cells, biotin-labeled against unlabeled antibody; competitor hu1803-9", "excerpt": "as §3, §4", "units": {"competition efficiency IC %": "%"}, "values": [
      {"binder": "B7", "competition efficiency IC %": 100},
      {"binder": "B3", "competition efficiency IC %": 46.6},
      {"binder": "B4", "competition efficiency IC %": 100}
    ]}
  ]
}
